One substance from PMC12115719 can be followed below.

The experiment has as its target Syngnathus scovelli chapparvovirus (SsChPV) VP, capsid protein (Syngnathus scovelli chapparvovirus). In words: cryo-EM structure.

In turn, “Syngnathus scovelli chapparvovirus (SsChPV) VP, capsid protein (natural protein)” registered a stoichiometry N of 60.

In general, stoichiometry N refers to a count of units in the complex or per binding partner.
